The values below come from patent US20130064834A1 (published 2013).

Common to all, as to test: SPR, mAb captured on anti-hFc, 25C
In general terms: Surface plasmon resonance follows binding to a sensor surface in real time, without labels.

Assay [1] concerns the target T1, tagged rhesus monkey (Macaca mulata) PCSK9 (rhesus monkey (Macaca mulata), UniProt A8T666 31-692).
T1 construct: also called mmPCSK9-mmh; mmPCSK9

In assay [2] the target is T2, cynomolgus monkey (Macaca fascicularis) PCSK9, myc-myc-his tagged (cynomolgus monkey (Macaca fascicularis), UniProt A8T662 31-692 (Macaca nemestrina entry), limits assumed).
T2 construct: also called mfPCSK9-mmh; mfPCSK9
T2 sequence (A8T662 31-692 limits assumed): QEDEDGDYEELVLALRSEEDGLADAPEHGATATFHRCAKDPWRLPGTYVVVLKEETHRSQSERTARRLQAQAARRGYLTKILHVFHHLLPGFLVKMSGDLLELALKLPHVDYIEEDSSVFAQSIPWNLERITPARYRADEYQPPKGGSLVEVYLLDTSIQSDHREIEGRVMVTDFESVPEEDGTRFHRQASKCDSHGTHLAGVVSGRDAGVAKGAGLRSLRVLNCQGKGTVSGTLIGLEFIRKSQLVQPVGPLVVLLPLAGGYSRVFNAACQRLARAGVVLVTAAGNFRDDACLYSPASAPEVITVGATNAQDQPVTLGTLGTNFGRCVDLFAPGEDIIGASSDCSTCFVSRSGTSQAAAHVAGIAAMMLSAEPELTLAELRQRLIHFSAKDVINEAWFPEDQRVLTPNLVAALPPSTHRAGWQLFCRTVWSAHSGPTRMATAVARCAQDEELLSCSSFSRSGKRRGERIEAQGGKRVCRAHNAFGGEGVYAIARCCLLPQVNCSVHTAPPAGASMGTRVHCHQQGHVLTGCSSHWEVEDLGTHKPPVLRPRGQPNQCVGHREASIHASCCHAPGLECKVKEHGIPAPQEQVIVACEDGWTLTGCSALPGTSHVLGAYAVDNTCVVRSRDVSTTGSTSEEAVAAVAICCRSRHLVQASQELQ

Another assay deals with T3, Human PCSK9-myc-myc-his (human, UniProt Q8NBP7 31-692).
T3 construct: also called hPCSK9-mmh; hPCSK9

Assay [3] deals with T4, hPCSK9(D374Y)-mmh (human, UniProt Q8NBP7 31-692).
T4 construct: also called hPCSK(D374Y)-mmh

Assay [4] addresses T5, human PCSK7, myc-myc-his tagged (human, UniProt Q16549 142-667, limits assumed).
T5 construct: also called hPCSK7-mmh; hPCSK7
T5 sequence: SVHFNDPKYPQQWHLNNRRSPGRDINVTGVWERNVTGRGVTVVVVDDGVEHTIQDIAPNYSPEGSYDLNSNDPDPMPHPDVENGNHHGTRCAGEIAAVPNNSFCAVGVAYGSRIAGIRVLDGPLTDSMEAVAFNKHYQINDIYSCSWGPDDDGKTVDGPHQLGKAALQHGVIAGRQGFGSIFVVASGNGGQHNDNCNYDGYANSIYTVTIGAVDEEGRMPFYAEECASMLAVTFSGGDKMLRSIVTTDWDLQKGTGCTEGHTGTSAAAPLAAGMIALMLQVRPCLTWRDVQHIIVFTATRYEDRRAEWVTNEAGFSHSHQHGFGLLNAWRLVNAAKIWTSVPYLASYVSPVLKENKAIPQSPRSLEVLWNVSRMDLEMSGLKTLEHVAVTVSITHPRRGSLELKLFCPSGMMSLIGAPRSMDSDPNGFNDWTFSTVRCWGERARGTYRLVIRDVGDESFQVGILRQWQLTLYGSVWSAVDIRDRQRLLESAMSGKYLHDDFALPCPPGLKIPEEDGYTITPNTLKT

The target of assay [5] is T6, human PCSK1, myc-myc-his tagged (human, UniProt P29120 111-753, limits assumed).
T6 construct: also called hPCSK1-mmh; hPCSK1
T6 sequence: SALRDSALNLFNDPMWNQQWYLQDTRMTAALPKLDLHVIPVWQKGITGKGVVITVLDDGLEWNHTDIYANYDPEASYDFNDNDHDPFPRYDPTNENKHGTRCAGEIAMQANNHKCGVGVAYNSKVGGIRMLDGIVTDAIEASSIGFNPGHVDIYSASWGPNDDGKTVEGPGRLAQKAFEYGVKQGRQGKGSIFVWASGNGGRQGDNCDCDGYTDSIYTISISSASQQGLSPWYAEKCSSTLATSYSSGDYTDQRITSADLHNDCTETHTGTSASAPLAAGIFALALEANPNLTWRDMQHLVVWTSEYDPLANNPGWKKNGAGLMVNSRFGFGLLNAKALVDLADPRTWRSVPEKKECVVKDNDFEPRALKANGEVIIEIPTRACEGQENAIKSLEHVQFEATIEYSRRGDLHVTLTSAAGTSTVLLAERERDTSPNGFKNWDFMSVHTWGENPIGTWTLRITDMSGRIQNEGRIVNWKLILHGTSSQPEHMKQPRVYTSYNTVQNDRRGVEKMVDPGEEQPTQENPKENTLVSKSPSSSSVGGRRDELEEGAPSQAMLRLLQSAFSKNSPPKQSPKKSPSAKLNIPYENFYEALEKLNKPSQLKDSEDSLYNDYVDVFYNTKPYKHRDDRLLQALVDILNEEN

The target of assay [6] is T1, tagged rhesus monkey (Macaca mulata) …. The source holds these as a separate data set.
Assay [7] concerns the target T7, rat (Rattus norvegicus) PCSK9, myc-myc-his tagged (rat (Rattus norvegicus), UniProt P59996 31-691).
T7 construct: also called rPCSK9-mmh; rPCSK9

For assay [8], the target named is T8, his-tagged Syrian golden hamster (Mesocricetus auratus) PCSK9 (Syrian golden hamster (Mesocricetus …)).
T8 construct: also called maPCSK9-h; maPCSK9
T8 chain: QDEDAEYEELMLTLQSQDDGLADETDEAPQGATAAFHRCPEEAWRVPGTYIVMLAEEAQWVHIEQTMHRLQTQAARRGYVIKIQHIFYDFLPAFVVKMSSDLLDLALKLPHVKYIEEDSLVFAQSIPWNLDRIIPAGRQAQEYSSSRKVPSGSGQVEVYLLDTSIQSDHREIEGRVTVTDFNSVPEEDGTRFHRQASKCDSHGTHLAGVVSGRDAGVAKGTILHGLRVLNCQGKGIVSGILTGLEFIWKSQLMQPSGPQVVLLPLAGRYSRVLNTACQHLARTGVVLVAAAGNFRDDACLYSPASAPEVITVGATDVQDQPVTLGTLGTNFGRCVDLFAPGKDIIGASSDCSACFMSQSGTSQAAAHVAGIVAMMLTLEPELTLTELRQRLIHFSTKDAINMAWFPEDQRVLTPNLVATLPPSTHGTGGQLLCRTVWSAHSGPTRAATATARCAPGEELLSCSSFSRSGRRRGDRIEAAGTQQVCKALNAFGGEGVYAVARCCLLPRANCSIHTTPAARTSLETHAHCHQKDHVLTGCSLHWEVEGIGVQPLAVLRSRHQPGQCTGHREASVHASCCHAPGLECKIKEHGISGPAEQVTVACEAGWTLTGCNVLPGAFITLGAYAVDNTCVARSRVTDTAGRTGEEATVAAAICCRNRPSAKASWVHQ

The target in assay [9] is T2, cynomolgus monkey (Macaca fascicularis) …. This is another data set of the same source.
For assay [10], the target named is T4, hPCSK9(D374Y)-mmh. This is another data set of the same source.

Read-outs that look alike come from different tables or passages of the source.

T1 sequence (A8T666 31-692 limits assumed): as the sequence (A8T662 31-692 limits assumed) above, with A607P, E639K counted along it
T7 sequence (P59996 31-691 limits assumed): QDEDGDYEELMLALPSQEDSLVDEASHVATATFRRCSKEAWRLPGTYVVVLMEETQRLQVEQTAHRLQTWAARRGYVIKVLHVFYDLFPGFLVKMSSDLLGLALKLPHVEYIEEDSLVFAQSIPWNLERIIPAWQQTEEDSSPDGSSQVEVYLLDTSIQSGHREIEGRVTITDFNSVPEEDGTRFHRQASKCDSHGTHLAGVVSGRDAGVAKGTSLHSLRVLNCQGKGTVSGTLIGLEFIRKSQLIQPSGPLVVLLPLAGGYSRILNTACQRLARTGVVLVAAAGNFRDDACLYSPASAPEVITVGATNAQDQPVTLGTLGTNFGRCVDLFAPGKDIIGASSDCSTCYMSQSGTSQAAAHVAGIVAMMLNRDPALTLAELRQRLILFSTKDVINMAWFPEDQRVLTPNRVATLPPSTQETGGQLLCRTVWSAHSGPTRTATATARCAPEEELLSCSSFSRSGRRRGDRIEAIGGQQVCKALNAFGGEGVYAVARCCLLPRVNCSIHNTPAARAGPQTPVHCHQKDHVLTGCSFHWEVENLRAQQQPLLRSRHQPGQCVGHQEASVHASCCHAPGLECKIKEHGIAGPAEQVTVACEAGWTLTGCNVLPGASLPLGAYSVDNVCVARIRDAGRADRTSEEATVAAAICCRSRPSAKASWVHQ

B1: H1M300N (antibody, V domains shown)
VH: EMQLVESGGGLVQPGGSLRLSCAASGFTFSSHWMKWVRQAPGKGLEWVANINQDGSEKYYVDSVKGRFTISRDNAKNSLFLQMNSLRAEDTAVYYCARDIVLMVYDMDYYYYGMDVWGQGTTVTVSS
VL: not shown
notes: Fully human version made in CHO cells
By Kd is commonly meant the constant that tells how readily two partners part at equilibrium. For the molecule B1, the Kd came out at 0.61 nM in [1], 1.5 nM in assay [2], 0.74 nM with Human PCSK9-myc-myc-his and 0.9 nM with hPCSK9(D374Y)-mmh [3]. For the same molecule, the T1/2 in [1] is 1.32 h; in assay [2], 0.75 h; in the assay with Human PCSK9-myc-myc-his, 1.83 h; in the assay with hPCSK9(D374Y)-mmh [3], 1.08 h. The binding result in assay [4] and in assay [5] was “no binding (tested: 100 nM)” throughout.

B2: H1H316P (antibody, V domains shown)
VH: EVQLVESGGGLVQPGGSLRLSCAASGFTFNNYAMNWVRQAPGKGLDWVSTISGSGGTTNYADSVKGRFIISRDSSKHTLYLQMNSLRAEDTAVYYCAKDSNWGNFDLWGRGTLVTVSS
VL: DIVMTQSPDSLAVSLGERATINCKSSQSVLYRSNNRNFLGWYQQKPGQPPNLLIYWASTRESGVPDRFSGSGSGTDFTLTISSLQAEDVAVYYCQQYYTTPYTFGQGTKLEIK
notes: Fully human mAb made in CHO cells; also called mAb316P
For B2, the Kd in assay [6] is 0.55 nM; in assay [7] it was 14.5 nM; in [8], 6.81 nM; in assay [9], 0.52 nM; with hPCSK9(D374Y)-mmh [10], 1.69 nM. Further, the T1/2 worked out at 1.53 h in assay [6]; 2 min in [7]; 5 min in assay [8]; 1 h in assay [9]; 0.25 h with hPCSK9(D374Y)-mmh [10].
